The RNAGym collection of RNA variant scans (doi:10.1073/pnas.2313332121)

B1: TPR t1 (parent)
chain: GACCAAUCUGCCCUCAGAGCUCGAGAACAUCUUCGGAUGCAGAGGAGGCAGGCUUCGGUGGCGCGAUAGCGCCAACGUCCUCAACCUCCAAUGCAUCCCACCACAUGAUGAUGCCUGAAGAGCCUUGGUUUUUUG

Variants of: B1
Assay: polymerase ribozyme fitness, log enrichment relative to wild type (log ratio); higher = more active; in vitro selection for triplet polymerase activity
In short: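 Mutant libraries for each subunit of a heterodimeric triplet polymerase ribozyme were made by PCR and then transcribed. Each library underwent one round of in vitro selection in triplicate: annealing with a biotinylated primer, the partner subunit and triplets, frozen incubation at −7 °C, gel excision of extended constructs, streptavidin-bead capture and RT-PCR. Input and output libraries were Illumina-sequenced, and only genotypes with ≥10 input reads and ≥1 read per output were kept. Fitness is the logarithm, base 2, of genotype enrichment over wild-type enrichment, computed from inverse-variance-weighted replicate averages.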

| Variant | polymerase ribozyme fitness (log ratio) |
| --- | --- |
| GACCAAUCUGCCCUCAGAGCUCGAGAACAUCUUCGGAUGCUGAGGAGGCAGGCUUCGGUGGCGCGAUAGCGCCAACGUCAUCAACCUCCAAUGCAUCCCACCACAUGAUGAUGCCUGAAGAGCCUUGGUUUUUUG [A41U C80A] | -5.17 |
| GACCAAUCUGCCCUCAGAGCUCGAGAACAUCUUCGGAUGCUGAGGAGGCAGGCUUCGGUGGCGCGAUAGCACCAACGUCCUCAACCUCCAAAGCAUCCCACCACAUGAUGAUGCCUGAAGAGCCUUCGUUUUUUG [A41U G71A U92A G127C] | -3.79 |
| GACCAAUCUGCCCUCAGAGCUCGAGAACAUCUUCGGAUGCUGAGGAGGCAGGCUUCCGUGGUGCGAUAGCGCCAACGUCCUCAACCUCCAAUGCAUCCCACCACAUGAUGAUGCCUGAAGAGCCUUGGUUUUUUG [A41U G57C C62U] | -0.95 |
| GACCAAUCUGCCCUCAGAGCUCGAGAACAUCUUCGGAUGCUGACGAUGCAGGCUUCGGUGGCGCGAUAGUGCCAACGUCCUCACCCUCCAAUGCAUCCCACCACAUGUUGAUGCCUUAAGAGCCUUGGUUUUUUG [A41U G44C G47U C70U A84C A108U G117U] | -6.98 |
| GACCAAUCUGCCCUCAGAGCUCGAGAACAUCUUCGGAUGCUGAGGAGGCAGGCUUCGCUGGCGCGAUAGCGCCAACGUCCUCAACCUCGAAUGCAUCCCACCACAUGAUGAUGCCUGAAGAGCCUUGGUUUUUUG [A41U G58C C89G] | -2.91 |
| GACCAAUCUGCCCUCAGAGCUCGAGAACAUCUUCGGAUGCUGAGCAGGCAGGCUUCGGUGGCGCGAUAGCGACAACGUCCUCAACCUCCAAUGCAUCCCACCACAUGAUGAUGCCUGAAGAGCCUUGGCUUUUUG [A41U G45C C72A U129C] | -2.79 |
| GACCAAUCUGCCCUCAGAGCUCGAGAACAUCUUCGGAUGCUGAGGAGGCAGGCUUCUGUGGCGCGAUAGCGCCAACGUCCUUAACCUCCAAUGCAUCCCACCACAUGAUGAUGCCUGAAGAGCCUUGGUUUUUUG [A41U G57U C82U] | -1.52 |
| GACCAAUCUGCCCUCAGAGCUCGAGAACAUCUUCGGAUGCUGAGGAGUCAGGCUUCGGUGGCGCGAUAGCGCCAACGUCCUCAACCUCCAAUGCAUCCCACCAAAUGAUGAUGCCUGAAGGACCUUGGUUUUUUG [A41U G48U C104A A121G G122A] | -3.77 |
| GACCAAUCUGCCCUCAGAGCUCGAGAACAUCUUCGGAUGCUGAGGAGGCAGGCUUCGGUGGCGCGAUACCGCCAACGCCCUCAACCUCCAAUGCAUCCCUCCACAUGAUGAUGCCUGAAGAGCCUUGGUUUUUUG [A41U G69C U78C A100U] | -6.25 |
| GACCAAUCUGCCCUCAGAGCUCGAGAACAUCUUCGGAUGCUGAGGAGGCAGGCUUCGGUGGCGCGAUAUCGCCAACGUCCUCAACCUCCAAUGCAUCCCACCACAUGAUGAUGCCUGAAGAGCCUUGGUUUUUUG [A41U G69U] | -0.159 |
| GACCAAUCUGCCCUCAGAGCUCGAGAACAUCUUCGGAUGCUGAGGAGGCAGGCUUCGGUGGCGCGAUAGCGCCAACGUCCUCAACCUCCAAUGGAUCCCACCACAUGAUGAUGCCUGAAGAGCCUUGGUUUUUUG [A41U C94G] | -1.87 |
| GACCAAUCUGCCCUCAGAGCUCGAGAACAUCUUCGGAUGCUGAGGAGGCAGGCUUCCGUGGCGCGAUAGCGCCAACGUCCUCAACCUCCAAUGCAUCCCACCACAUGAUGAUGCCUGAAGAGCCUUGGUUUUUUG [A41U G57C] | -1.91 |
| GACCAAUCUGCCCUCAGAGCUCGAGAACAUCUUCGGAUGCUGAGGAGGCAGGCUUCGGUGGCGCGAUAUCGCCAACGGCCUCAACCUCCAAUGCAUCCCACCACAUGAUGAUGCCUGAAGAGUCUUGGUUUUUUG [A41U G69U U78G C123U] | 1.47 |
| GACCAAUCUGCCCUCAGAGCUCGAGAACAUCUUCGGAUGCUGAGGAGGCAGCCUUCGGUGGCGCGAUAGCGCCAACGUCCUCAACCACCAAUGCAUCCCACCACAUGAUGAUGCCUGAAGAGCCUUGGUUUUUUG [A41U G52C U87A] | -1.57 |
| GACCAAUCUGCCCUCAGAGCUCGAGAACAUCUUCGGAUGCUGAGGAGGCAGGCUUCGGUUGCGCGAUAGCGCCAACGUCCUCAAACUCCAAUGUAUCCCACCACAUGAUGAUGCCUGAAGAGCCUUGGUUUUUUG [A41U G60U C85A C94U] | -1.72 |
| GACCAAUCUGCCCUCAGAGCUCGAGAACAUCUUCGGAUGCUGAGGAGGCAGGCUUCGGUGGCGCGAUACCGCCAACGUCCUCAACCUCCAAUGCAUCCCACCACAUGAUGAUGCCUGAAGAGCCUUUGUUUUUUG [A41U G69C G127U] | -3.25 |
| GACCAAUCUGCCCUCAGAGCUCGAGAACAUCUUCGGAUGCUGAGGAGGCAAGCUUCCGUGGCGCGAUAGCGCCAACGUCCUAAACCUCCAAUGCAGCCCACCACAUGAUGAUGUCAGAAGAGCCUUGGUUUUUUG [A41U G51A G57C C82A U96G C114U U116A] | -7.09 |
| GACCAAUCUGCCCUCAGAGCUCGAGAACAUCUUCGGAUGCUGAGGAGGCAGGCUUCGGUGCCGCGAUAGCGCCAACGUCCUCAACCUCCAAUGCAUCCCACCACAUGAUGAUGCCUGAAGAGCCUUGGUUUUUUG [A41U G61C] | -3.99 |
| GACCAAUCUGCCCUCAGAGCUCGAGAACAUCUUCGGAUGCUGAGAAGGCAGGCUCCGGUGGCGCGAUAGCGCCAACGUCCUCAACCUCCAAUGCAUCCCACCACAUGAUGAUGCCUGAAGAGCCUUGGUUUUUUG [A41U G45A U55C] | -1.85 |
| GACCAAUCUGCCCUCAGAGCUCGAGAACAUCUUCGGAUGCUGAGGAGGCAGGCUUCGGUGGCGCGAUAGCGCCAACGUCCUCAACCUCCAAUGCAUCCCACCACAUGAUGAUGGCUGAAGAGCCUUGGUUUUUUG [A41U C114G] | -2.94 |
| GACCAAUCUGCCCUCAGAGCUCGAGAACAUCUUCGGAUGCUGAGGAGGCAGGCUUCGGUGGCGCGAUAGCGCCAACGUCCUCAACCUCCAAUGCAUCCCACCACAUGAUGAUGACUGAAGAGCCUUGGUUUUUUG [A41U C114A] | -3.03 |

| Variant | polymerase ribozyme fitness (log ratio) |
| --- | --- |
| GACCAAUCUGCCCUCAGAGCUCGAGAACAUCUUCGGAUGCUGAGGAGGCAGGCUUCGGUGGCGCGAUAUCGCCAACGUCCUCAACCUCCAAUCCAUCCCACCACAUGAUGAUGCCUGAAGAGCCUUGGUUUUUUG [A41U G69U G93C] | -0.276 |
| GACCAAUCUGCCCUCAGAGCUCGAGAACAUCUUCGGAUGCUGAGGAGGCAGGCUUCGGUGGCGCGAUAGCGCCAACGUCCUCAACCUUCAAUGCAUCCCACCACAUGAUGAUGCCUGAAGAGCCUUGGUUUUUUG [A41U C88U] | -1.27 |
| GACCAAUCUGCCCUCAGAGCUCGAGAACAUCUUCGGAUGCUGAGGAGGCAGGCUUCGGUGGCGCGAUAGCGCCAACGUCCUCAACCUGCAAUGCAUCCCACCACAUGAUGAUGCCUGAAGAGCCUUGGUUUUUUG [A41U C88G] | -2.13 |
| GACCAAUCUGCCCUCAGAGCUCGAGAACAUCUUCGGAUGCUGAGGAGGCAGGCUUCGGUGGCACGAUAGCGCCAACGUCCUCAACCUCCAAUGCAUCCCACCACAUGAUGAUGCCUGAAGAGCUUUGGUUUUUUG [A41U G63A C124U] | -1.14 |
| GACCAAUCUGCCCUCAGAGCUCGAGAACAUCUUCGGAUGCUGAGAAGGCAGGCUUCGGUGGCGCGAUAGCGCCAACGUCCUCAACCUCCAAUGCAUCCCACCACAUGAUGAUGCCUGAAGAGCCUUGGUUUUUUG [A41U G45A] | -1.87 |
| GACCAAUCUGCCCUCAGAGCUCGAGAACAUCUUCGGAUGCUGAGGAGGCAGGCUUCGGUGGCACGAUAGCGCCAACGUCCUCAACCUCCAAUGCAUCCCAACACAUGAUGAUACCUGUAGAGCCUUGGUUUUUUG [A41U G63A C101A G113A A118U] | -4.42 |
| GACCAAUCUGCCCUCAGAGCUCGAGAACAUCUUCGGAUGCUGAGGAGGCAGGCUUCGGUGGCACGAUAGCGCCAACGUCCUCAACCUCCAAUGCAUCCCACCACAUGAUGAUGCCUGAAGAGCCUUGGUUUUUUG [A41U G63A] | -2.73 |
| GACCAAUCUGCCCUCAGAGCUCGAGAACAUCUUCGGAUGCUGAGUAGGCAGGGUGCGGUGGCUCGAUAGCGCCAACGUCCUCAACCUCCAAUGCAUCCCACCACAUGAUGAUGCCUGAAGAGCCUUGGUUUUUUG [A41U G45U C53G U55G G63U] | -6.72 |
| GACCAAUCUGCCCUCAGAGCUCGAGAACAUCUUCGGAUGCUGAGGAGGCAGGCUUCGGUGGCGCGAUAGCGCCAACGUCCUCAACCUCCAAUGCAUCCCACCACAUGAUGAUGCCUGAAGAGCAUUGGUUUUUUG [A41U C124A] | 0.11 |
| GACCAAUCUGCCCUCAGAGCUCGAGAACAUCUUCGGAUGCUGAGGAGGCAGGCUUCGGUGGCGCGAUAGCGCCAACGUCCUCAACCUCCAAUGCAUCCCACCACAUGAUGAUGCCUGAAGAGCUUUGGUUUUUUG [A41U C124U] | 0.983 |
| GACCAAUCUGCCCUCAGAGCUCGAGAACAUCUUCGGAUGCUGAGGAGGCAGGCUUCGCUGGAGCGAUAGCGCCAACGUCCUCAACCUCCAAUGCAUCCCACCACAUGAUGAUGCCUCAAGAGCCUAGAUUUUUUG [A41U G58C C62A G117C U126A G128A] | -7.88 |
| GACCAAUCUGCCCUCAGAGCUCGAGAACAUCUUCGGAUGCUGAGGAGGCAGGCUUCGGUGGCGCGAUAGCGCCAACGUCCUCAACCUCCAAUGCAUCCCACCACAUGAUGAUGCCUGAAGAGGCUUGGUUUUUUU [A41U C123G G135U] | 0.204 |
| GACCAAUCUGCCCUCAGAGCUCGAGAACAUCUUCGGAUGCUGAGGAGGCAGGCUUCGGUGACGCGAUAGCGCCAACGUCCUGAACCUCCAAUGCAUCCCACCACAUGAUGAUGCCUGAAAAGCCGUGGUUUUUUG [A41U G61A C82G G120A U125G] | -2.63 |
| GACCAAUCUGCCCUCAGAGCUCGAGAACAUCUUCGGAUGCUGAGGAGGCAGGCUUCGGUGGCGCGAUAGCGCCAACGUCCUUAACCUCCAAUGCAUCCCACCUCAUGAUCAUGCCUGAAGAACCUUGGUUUUUUG [A41U C82U A103U G110C G122A] | -7.14 |
| GACCAAUCUGCCCUCAGAGCUCGAGAACAUCUUCGGAUGCUGAGGAGGCAGGCUUCGGUGGCGCGAUAGCGCCAACGUCCUCAACCUCUAAUGCAUCCCACCACAUGAUGAUGCCAGAAGAGCCUUGGUUUUUUG [A41U C89U U116A] | -4.32 |
| GACCAAUCUGCCCUCAGAGCUCGAGAACAUCUUCGGAUGCUGAGGAGGCAGGCUUCGGUGCCGCGAUAGCGCCAACGUCCUCAACCUCCAAUGCAUCCCACCACAUGAUGAUGCAUAAAGAGCCUUGGUUUUUUG [A41U G61C C115A G117A] | -5.8 |
| GACCAAUCUGCCCUCAGAGCUCGAGAACAUCUUCGGAUGCUCAGGAGGCAGGCUUCGGUUGCGCGAUAGCGCCAACGUCCUCAACCUCCAAUGCAUCCCACCACAUGAUGAUGCCUGAAGAGCCUUGGUUUUUUG [A41U G42C G60U] | -2.24 |
| GACCAAUCUGCCCUCAGAGCUCGAGAACAUCUUCGGAUGCUGAGGAGGCAGGCUUCGGUGGCGCGAUAGCGCCAACGUCCUCAACCUCCAAUGCAUCCCAUCACAUGAUGAUGCCUGAAGAGCCUUGGUUUUUUG [A41U C101U] | -1.85 |
| GACCAAUCUGCCCUCAGAGCUCGAGAACAUCUUCGGAUGCUGAGGAGGCAGGCUUCGGUGGCGCGAUAGCGCCAACGUCCUCAACCUCCAAUGCAUUCCACCACAUGAUGAUGCCUGAAGAGCCUUGGUUUUUUG [A41U C97U] | -2.14 |
| GACCAAUCUGCCCUCAGAGCUCGAGAACAUCUUCGGAUGCUCAGGAGGCAGGCUUCGGUGGCGCGAUAGAGCCAACGUCCUCAACCUCCAAUGCAUCCCACCACAUGAUGAUGCCUGAAGAGCCUUGGUUUUUUG [A41U G42C C70A] | -6.24 |
| GACCAAUCUGCCCUCAGAGCUCGAGAACAUCUUCGGAUGCUCAGGAGGCAGGCUUCGGUGGCGCGAUAGCGCCAACGUCCUCAACCUCCAAUGCAUCCCACCACAUGAUGAUGCCUGAAGAGCCUUGGUUUUUUG [A41U G42C] | -2.5 |
